Measurements: patent US20100291074

Experiments:
[1] = biological target: Aβ (amyloid beta peptide, length and aggregation state not specified; ˜4 kDa band) (UniProt P05067)
[2] = biological target: Aβ42 (aggregation state not stated at the place of use) (UniProt P05067)
Sequence of Aβ42 (aggregation state not stated at the place of use) (P05067 whole entry, looked up): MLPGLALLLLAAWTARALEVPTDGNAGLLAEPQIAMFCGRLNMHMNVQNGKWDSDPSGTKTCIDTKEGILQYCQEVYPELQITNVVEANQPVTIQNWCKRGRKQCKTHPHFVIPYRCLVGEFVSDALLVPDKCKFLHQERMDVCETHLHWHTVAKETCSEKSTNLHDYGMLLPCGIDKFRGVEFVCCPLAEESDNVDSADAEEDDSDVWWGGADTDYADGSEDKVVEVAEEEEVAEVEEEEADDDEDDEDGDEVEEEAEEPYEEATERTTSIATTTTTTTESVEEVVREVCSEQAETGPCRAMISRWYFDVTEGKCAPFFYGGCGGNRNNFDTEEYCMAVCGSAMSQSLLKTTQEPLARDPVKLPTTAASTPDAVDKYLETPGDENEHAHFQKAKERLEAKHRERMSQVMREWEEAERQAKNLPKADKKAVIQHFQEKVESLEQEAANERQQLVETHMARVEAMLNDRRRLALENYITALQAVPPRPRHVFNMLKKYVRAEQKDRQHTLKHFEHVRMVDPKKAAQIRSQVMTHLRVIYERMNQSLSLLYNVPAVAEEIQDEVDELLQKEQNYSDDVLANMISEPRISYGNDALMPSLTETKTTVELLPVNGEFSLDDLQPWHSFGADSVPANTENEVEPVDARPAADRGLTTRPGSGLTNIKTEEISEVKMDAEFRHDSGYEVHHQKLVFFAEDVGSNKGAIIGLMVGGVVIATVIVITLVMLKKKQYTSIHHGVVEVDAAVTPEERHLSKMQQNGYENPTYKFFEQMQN

Sequence of mouse CypD, endogenous, in brain mitochondria and cultured cortical neurons of nonTg and Tg mAPP mice (chain, as listed by the source): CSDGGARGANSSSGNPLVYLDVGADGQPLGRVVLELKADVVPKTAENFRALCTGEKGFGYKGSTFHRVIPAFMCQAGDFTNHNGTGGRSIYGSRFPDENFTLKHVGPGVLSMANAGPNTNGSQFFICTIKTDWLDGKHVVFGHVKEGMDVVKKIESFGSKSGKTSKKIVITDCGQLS
Sequence of Aβ (amyloid beta peptide, length and aggregation state not specified; ˜4 kDa band) (P05067 whole entry, looked up, tested part not stated): as the sequence (P05067 whole entry, looked up) above

## mouse CypD, endogenous, in brain mitochondria and cultured cortical neurons of nonTg and Tg mAPP mice
[1]
  cytochrome c release into the supernatant from isolated mitochondria treated with Aβ: increased levels of cytochrome c release into the supernatant in nonTg-derived mitochondria treated with Aβ
[2]
  Aβ-mediated swelling of isolated cortical mitochondria, diminished in mitochondria lacking CypD, Aβ 1.6 µM: ˜60%
